Test results reported in patent US20250152742A1, “COMPOSITIONS AND METHODS FOR NEUROLOGICAL DISEASES” (Trames Bio, Inc., priority 2022, published 2025).
Positions count from the first letter of the chain named. Names and notes keep the numbering of the source.

System: engineered chimeric receptor SEQ ID NO: 33 and its mutants (human α7-nAChR ligand binding domain / human GlyRα1 ion pore domain) in Lenti-X 293T cells
Assay: YFP fluorescence quenching anion reporter plate reader assay (percent quench, EC50)
Type: cell-based
Conditions: for YFP fluorescence quenching using CNL001 (percent quench): receptor named in row; for YFP fluorescence quenching using Varenicline, 3 nM var: ligand Varenicline 3 nM; for YFP fluorescence quenching using Varenicline, 30 nM var: ligand Varenicline 30 nM; for YFP fluorescence quenching using Varenicline, 300 nM var: ligand Varenicline 300 nM; for YFP fluorescence quenching using Varenicline, 500 nM var: ligand Varenicline 500 nM; for YFP fluorescence quenching using Varenicline, 1 uM var: ligand Varenicline 1 uM
Summary of the method: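 Lenti-X 293T cells co-expressing an anion-quenchable YFP were transiently transfected with receptor DNA, then ligand was added in NaI-substituted buffer (pH 7.2) after 30 min at 37 °C. Fluorescence was read about 2 min; percent quench = mean of last 10 s over 15 s pre-ligand baseline.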

[1] = 1 nM CNL001, first column so headed
[2] = 1 nM CNL001, second column so headed
[3] = 3 nM brd (TC-5619/Bradanicline)
[4] = 10 nM CNL001, first column so headed
[5] = 10 nM CNL001, second column so headed
[6] = 30 nM brd (TC-5619/Bradanicline)
[7] = 50 nM CNL001, first column so headed
[8] = 50 nM CNL001, second column so headed
[9] = 100 nM CNL001, first column so headed
[10] = 100 nM CNL001, second column so headed
[11] = 300 nM brd (TC-5619/Bradanicline)
[12] = 1 uM CNL001, first column so headed
[13] = 1 uM CNL001, second column so headed

B1: CODA965: engineered receptor: Y140C in SEQ ID NO: 33 (protein)
chain: MRCSPGGVWLALAASLLHVSLQGEFQRKLYKELVKNYNPLERPVANDSQPLTVYFSLSLLQIMDVDEKNQVLTTNIWLQMSWTDHYLQWNVSEYPGVKTVRFPDGQIWKPDILLYNSADERFDATFHTNVLVNSSGHCQCLPPGIFKSSCPMDLKNFPMDVQTCKLKFGSWSYGGWSLDLQMQEADISGYIPNGEWDLVGIPGKRSERFYECCKEPYPDVTFTVTMRRRMGYYLIQMYIPSLLIVILSWISFWINMDAAPARVGLGITTVLTMTTQSSGSRASLPKVSYVKAIDIWMAVCLLFVFSALLEYAAVNFVSRQHKELLRFRRKRRHHKSPMLNLFQEDEAGEGRFNFSAYGMGPACLQAKDGISVKGANNSNTTNPPPAPSKSPEEMRKLFIQRAKKIDKISRIGFPMAFLIFNMFYWIIYKIVRREDVHNQ
modifications: synthetic sequence of chimeric LGIC
YFP fluorescence quenching using CNL001 (percent quench) [1]: −12.765% | YFP fluorescence quenching using CNL001 (percent quench) [2]: −12.608% | YFP fluorescence quenching using TC-5619/Bradanicline (percent quench) [3]: −18.49% | YFP fluorescence quenching using CNL001 (percent quench) [4]: 68.134% | YFP fluorescence quenching using CNL001 (percent quench) [5]: 71.394% | YFP fluorescence quenching using TC-6683 (percent quench) (30 nM TC-6683): −8.21% | YFP fluorescence quenching using TC-5619/Bradanicline (percent quench) [6]: 22.66% | YFP fluorescence quenching using CNL001 (percent quench) [7]: 80.298% | YFP fluorescence quenching using CNL001 (percent quench) [8]: 82.159% | YFP fluorescence quenching using ABT-126 (percent quench) (50 nM abt (ABT-126)): −10.75% | YFP fluorescence quenching using CNL001 (percent quench) [9]: 82.404% | YFP fluorescence quenching using CNL001 (percent quench) [10]: 82.14% | YFP fluorescence quenching (percent quench) (100 nM CNL002): 43.24% | YFP fluorescence quenching using ABT-126 (percent quench) (100 nM abt (ABT-126)): −4.11% | YFP fluorescence quenching using AZD-0328 (percent quench) (100 nM azd0328): −16.69% | YFP fluorescence quenching using TC-6683 (percent quench) (300 nM TC-6683): −16.37% | YFP fluorescence quenching using ABT-126 (percent quench) (300 nM abt (ABT-126)): 18.93% | YFP fluorescence quenching using AZD-0328 (percent quench) (300 nM azd0328): 1.3% | YFP fluorescence quenching using TC-5619/Bradanicline (percent quench) [11]: 38.02% | YFP fluorescence quenching using CNL001 (percent quench) [12]: 82.34% | YFP fluorescence quenching using CNL001 (percent quench) [13]: 80.649% | YFP fluorescence quenching (percent quench) (1 uM CNL002): 42.72% | YFP fluorescence quenching using ABT-126 (percent quench) (1 uM abt (ABT-126)): 52.64% | YFP fluorescence quenching using TC-6683 (percent quench) (3 uM TC-6683): −19.48% | YFP fluorescence quenching (percent quench) (10 uM ach (acetylcholine)): −21.71% | YFP fluorescence quenching (percent quench) (30 uM CNL002): 51.43% | YFP fluorescence quenching using TC-6683 (percent quench) (30 uM TC-6683): −24.32% | YFP fluorescence quenching using AZD-0328 (percent quench) (30 uM azd0328): 21.78% | YFP fluorescence quenching using TC-6683 (percent quench) (100 uM TC-6683): −24.99% | YFP fluorescence quenching (percent quench) (100 uM ach (acetylcholine)): 3.49% | YFP fluorescence quenching (percent quench) (1 mM ach (acetylcholine)): 63.34% | YFP fluorescence quenching (percent quench) (3 mM ach (acetylcholine)): 51.92% | YFP fluorescence quenching using Facinicline, 30 nM fac (ligand Facinicline 30 nM): −12.29 | YFP fluorescence quenching using Facinicline, 300 nM fac (ligand Facinicline 300 nM): 20.11 | YFP fluorescence quenching using Facinicline, 30 uM fac (ligand Facinicline 30 uM): 37.62 | YFP fluorescence quenching using TC-6987, 1 uM tc6987 (ligand TC-6987 1 uM): 2.73 | YFP fluorescence quenching using TC-6987, 10 uM tc6987 (ligand TC-6987 10 uM): 30.37 | YFP fluorescence quenching using TC-6987, 500 uM tc6987 (ligand TC-6987 500 uM): 33.07 | YFP fluorescence quenching using Varenicline, 3 nM var (first column): −17.716 | YFP fluorescence quenching using Varenicline, 3 nM var (second column): −23.019 | YFP fluorescence quenching using Varenicline, 30 nM var (first column): −14.993 | YFP fluorescence quenching using Varenicline, 30 nM var (second column): −12.182 | YFP fluorescence quenching using Varenicline, 300 nM var (first column): −11.731 | YFP fluorescence quenching using Varenicline, 300 nM var (second column): −10.13 | YFP fluorescence quenching using Varenicline, 500 nM var (first column): −12.518 | YFP fluorescence quenching using Varenicline, 500 nM var (second column): −15.043 | YFP fluorescence quenching using Varenicline, 1 uM var (first column): −13.385 | YFP fluorescence quenching using Varenicline, 1 uM var (second column): −17.022

B2: CODA1047: engineered receptor: R101F, Y210V in SEQ ID NO: 33 (protein)
chain: B1 chain with R101F, C140Y, Y210V
modifications: synthetic sequence of chimeric LGIC
YFP fluorescence quenching using CNL001 (percent quench) [1]: −7.82% | YFP fluorescence quenching using CNL001 (percent quench) [2]: −8.382% | YFP fluorescence quenching using TC-5619/Bradanicline (percent quench) (1 nM brd (TC-5619/Bradanicline)): −5.548% | YFP fluorescence quenching using TC-5619/Bradanicline (percent quench) [3]: −9.432% | YFP fluorescence quenching using CNL001 (percent quench) [4]: −5.381% | YFP fluorescence quenching using CNL001 (percent quench) [5]: −1.431% | YFP fluorescence quenching using TC-5619/Bradanicline (percent quench) (10 nM brd (TC-5619/Bradanicline)): −3.068% | YFP fluorescence quenching using TC-6683 (percent quench) (30 nM TC-6683): −24.195% | YFP fluorescence quenching using TC-5619/Bradanicline (percent quench) [6]: 2.368% | YFP fluorescence quenching using CNL001 (percent quench) [7]: −0.999% | YFP fluorescence quenching using CNL001 (percent quench) [8]: 3.909% | YFP fluorescence quenching using ABT-126 (percent quench) (50 nM abt (ABT-126)): −14.1% | YFP fluorescence quenching using CNL001 (percent quench) [9]: −0.823% | YFP fluorescence quenching using CNL001 (percent quench) [10]: −5.885% | YFP fluorescence quenching using ABT-126 (percent quench) (100 nM abt (ABT-126)): −11.72% | YFP fluorescence quenching using TC-5619/Bradanicline (percent quench) (100 nM brd (TC-5619/Bradanicline)): 47.529% | YFP fluorescence quenching using TC-6683 (percent quench) (300 nM TC-6683): −24.234% | YFP fluorescence quenching using ABT-126 (percent quench) (300 nM abt (ABT-126)): −12.98% | YFP fluorescence quenching using TC-5619/Bradanicline (percent quench) [11]: 74.413% | YFP fluorescence quenching using CNL001 (percent quench) [12]: 1.638% | YFP fluorescence quenching using CNL001 (percent quench) [13]: 3.483% | YFP fluorescence quenching using ABT-126 (percent quench) (1 uM abt (ABT-126)): −15.09% | YFP fluorescence quenching using TC-6683 (percent quench) (3 uM TC-6683): −21.291% | YFP fluorescence quenching (percent quench) (10 uM ach (acetylcholine)): −4.26% | YFP fluorescence quenching using TC-6683 (percent quench) (30 uM TC-6683): −16.363% | YFP fluorescence quenching using TC-6683 (percent quench) (100 uM TC-6683): −24.9% | YFP fluorescence quenching (percent quench) (100 uM ach (acetylcholine)): −13.05% | YFP fluorescence quenching (percent quench) (300 uM ach (acetylcholine)): −11.73% | YFP fluorescence quenching (percent quench) (500 uM ach (acetylcholine)): −10.75% | YFP fluorescence quenching (percent quench) (1 mM ach (acetylcholine)): −8.81% | YFP fluorescence quenching (percent quench) (3 mM ach (acetylcholine)): −6.77% | YFP fluorescence quenching (percent quench) (10 mM ach (acetylcholine)): −1.03% | YFP fluorescence quenching using Varenicline, 3 nM var (first column): −3.035 | YFP fluorescence quenching using Varenicline, 3 nM var (second column): −0.786 | YFP fluorescence quenching using Varenicline, 30 nM var (first column): −5.181 | YFP fluorescence quenching using Varenicline, 30 nM var (second column): 0.669 | YFP fluorescence quenching using Varenicline, 300 nM var (first column): −2.748 | YFP fluorescence quenching using Varenicline, 300 nM var (second column): −6.708 | YFP fluorescence quenching using Varenicline, 500 nM var (first column): −9.123 | YFP fluorescence quenching using Varenicline, 500 nM var (second column): −9.869 | YFP fluorescence quenching using Varenicline, 1 uM var (first column): −6.702 | YFP fluorescence quenching using Varenicline, 1 uM var (second column): −7.26
